Target: T1, p20 domain of mature CgMCA-I (fragment between the cleavages after R54 and K263) (Candida glabrata, UniProt Q6FPX9 55-263)
T1 construct: Candida glabrata metacaspase CgMCA-I, p20 fragment left after cleavage after R54 and after K263; Residues seen in the maps: from after Gly68 (7QP1) or after Ser72 (7QP0) up to before Asn260; Limits are worked out from the cleavage sites found by mass spectrometry (R54, K263); The N-terminal His tag leaves with residues 1-54; source: E. coli T7 express, purified as CgMCA-I; cleaved by its own …
T1 sequence (looked up): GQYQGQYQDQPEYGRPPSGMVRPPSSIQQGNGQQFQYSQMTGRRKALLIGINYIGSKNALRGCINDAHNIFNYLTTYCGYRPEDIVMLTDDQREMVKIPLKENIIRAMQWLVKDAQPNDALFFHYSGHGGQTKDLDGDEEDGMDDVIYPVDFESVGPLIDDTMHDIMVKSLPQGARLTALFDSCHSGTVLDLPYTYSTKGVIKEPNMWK
Test: crystal structure; fully matured CgMCA-I with Ca2+ (7QP1, 3.0 A) and with Mg2+ (7QP0, 1.6 A); N-terminal part and p20-p10 linker cleaved off
Conditions: both partners purified

B1: p10 domain of mature CgMCA-I (fragment after the cleavage at R307) (domain or fragment, Candida glabrata, UniProt Q6FPX9 308-392, looked up)
chain: QIKFSPADVIMLSGSKDNQTSADTFADGQNIGAMSHAFISVMTRQPQQSYLSLLQNLRNELAGKYSQKPQLSASHPIDVNLQFIM
notes: Candida glabrata metacaspase CgMCA-I, C-terminal p10 fragment left after cleavage after R307; Residues seen in the maps begin after Ile309; Limits are worked out from the cleavage site found by mass spectrometry (R307) and the stated length of 392 residues; also called p10 subunit; source: E. coli T7 express, purified as CgMCA-I; cleaved by its own maturation before or during crystallisation
binding result: binds

From publication PMC9622860, “Structural and molecular determinants of Candida glabrata metacaspase maturation and activation by calcium” (Communications Biology, 2022)
